Results as given in patent publication US10456465B2, “Compositions, kits, and methods for the diagnosis prognosis, monitoring, treatment and modulation of post-transplant lymphoproliferative disorders and hypoxia associated angiogenesis disorders using galectin-1” (Dana-Farber Cancer Institute, Inc., priority 2009, dated 2019).

What was measured:
[1] = biological target: recombinant human Gal1 (rGal1) (Homo sapiens, UniProt P09382); assay: Anti-Gal1 mAb neutralization of rGal1-induced apoptosis of activated T cells; assay type: cell-based; conditions: 10 μM rGal1 pre-incubated with 5 μM mAb; 16 h; Annexin V-FITC/PI
Sequence of recombinant human Gal1 (rGal1) (P09382 whole entry): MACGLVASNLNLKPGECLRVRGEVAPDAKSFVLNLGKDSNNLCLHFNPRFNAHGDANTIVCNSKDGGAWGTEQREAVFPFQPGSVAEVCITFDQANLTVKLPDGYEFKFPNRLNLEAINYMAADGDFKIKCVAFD
Experimental: Normal T cells were purified and activated with a combination of αCD3 (0.1 μg/ml) and αCD28 (0.5 μg/ml) as previously described (Juszczynski et al. (2007) Proc Natl Acad Sci USA 104:13134-9). Ten μM recombinant human Gal1 (rGal1) was pre-incubated with 5 μM anti-Gal1 mAb 8F4F8G7 or isotype control IgG2b2, (Rockland Immunochemicals Inc., Boyertown, Pa.) or medium alone at 37° C. for 30 min. Thereafter, rGal1+/− antibody was added to in vitro αCD3 and αCD28 activated T cells. After 16 h treatment, cells were harvested for apoptosis analysis using Annexin V-FITC and PI (BD Biosciences, San Jose, Calif.) flow cytometry as previously described (Juszczynski et al. (2007) Proc Natl Acad Sci USA 104:13134-9).

B16 tumors [2] = assay: Syngeneic B16 melanoma model; assay type: in vivo, mouse
Experimental: (§1) Wild-type KS cells or shRNA clones (5×10^6 cells) were injected subcutaneously into 6- to 8-week old nude mice. Wild-type B16 cells or shRNA clones (2×10^5 cells) were injected into 6- to 8-week old B6 or B6/Rag^−/− mice and tumor development was monitored as described in Rubinstein et al. (2004) Cancer Cell 5, 241-251. Treatments with 8F4F8G7 mAb or control isotype (2.5, 7.5 or 15 mg/kg; i.p. injections every three days) were initiated when tumors reached 100 mm^3. Mice were sacrificed when tumors reached a volume greater than 2 cm^3. At 2 weeks after tumor challenge, lymph node cells (5×10^5 cells/well) were restimulated for 72 h with 1×10^4 irradiated (4,000 rads) B16 cells and were analyzed for proliferation and cytokine production. For adoptive transfer, splenic T cells (5×10^6) from tumor-bearing mice were labeled with CFSE (Molecular Probes) and injected through the tail vein into tumor-bearing recipient mice treated with 8F4F8G7 or control mAb. In related studies, fluorescent beads (3 μm; BD Biosciences), rather than splenic T cells, were injected into tumor-bearing animals treated with 8F4F8G7 or control antibody. CFSE^+ cells or PerCP-labeled beads were analyzed after 24 h or 15 min respectively by flow cytometry in tumor parenchyma and spleen.
For immunostaining, mice were anesthetized and cardiac-perfused with PBS and 4% paraformaldehyde and tissues were embedded in OCT. To visualize the vasculature, mice were intravenously injected with FITC-conjugated Griffonia simplicifolia Lectin-1 (GLS-1B4, Vector) prior to heart perfusion and fixation. Pericyte maturation was assessed using antibodies specific for αSMA (1A4; Dako), desmin (D33; Dako), PDGFRβ (APB5; Biolegend) and Rgs5 (HPA001821; Prestige Sigma). The fraction of pericyte coverage was calculated as the ratio of αSMA area to the FITC-GLS-1B4 or CD31 stained area using a specific anti-CD31 antibody (Mec13.3; BD Biosciences). For immunoperoxidase staining, paraffin-embedded human tumor sections were incubated with anti-CD31 (JC/70A; Dako) and anti-Gal1 antibodies as described in Juszczynski et al. (2007) Proc Natl Acad Sci USA 104, 13134-13139 using the Vectastain Elite ABC kit (Vector). Studies with patient biopsies were subjected to Institutional Review Boards approval (CEMIC and IBYME). Hypoxia was detected after injection of pimonidazole hydrochloride for 30 min following immunostaining with Hypoxyprobe-1 plus kit (Natural Pharmacia International).

endogenous Gal1 = biological target: T1, endogenous Gal1 (Homo sapiens, UniProt P09382); assay: Reactivity with endogenous Gal1 from Hodgkin lymphoma cell line (immunoblot); assay type: binding; conditions: Hodgkin lymphoma cell line (L428); immunoblots
T1 construct: endogenous Gal1 from HL cell lines; endogenous in cells; host or cells: Hodgkin lymphoma cell line (L428)
T1 sequence (P09382 whole entry): as above
From the text: Anti-human Gal1 mAbs were obtained by immunizing B6-Cg-Tg (BCL2)22Wehi-J mice (Jackson Labs, Bar Harbor, Me.) with recombinant human glutathione-s-transferase (GST)-Gal1, generating anti-Gal1 hybridomas with standard methods and purifying the Gal1 monoclonal antibody and class-matched IgG2bλ, control by affinity chromatography. […] A previously described anti-Gal1 polyclonal antibody (Juszczynski et al. (2007) Proc Natl Acad Sci USA 104:13134-9) was used as a positive control in all assays.
Expression of Gal1 protein in HL, LCL and DLBCL cell lines was determined by Western blot (WB) using the αGal1 monoclonal antibody (8F4F8G7) or the previously described polyclonal antiserum (Juszczynski et al. (2007) Proc Natl Acad Sci USA 104:13134-9). Knock-down of LMP2A was confirmed by WB using anαLMP2a antibody (Abcam, Cambridge, Mass.). Activity of the AP-1 components, cJun and JunB, in the HL cell line L428 and the LCLs RIC and NOR were interrogated by WB using αphospho(Ser63)-cJun (Cell Signaling Technology), αcJun (Cell Signaling Technology, Danvers, Mass.), αphospho(Ser259)-JunB (Santa Cruz Biotechnology, Inc. Santa Cruz, Calif.) and αJunB (Cell Signaling Technology). WBs were normalized using αβ-actin antibody (Sigma Aldrich, St. Louis, Mo.) to determine β-actin expression as a loading control.

B16 tumors [3] = assay: Adoptive transfer of CFSE-labeled T cells or fluorescent beads into B16 tumor-bearing mice; assay type: in vivo, mouse
Experimental: as §1

human galectin-1 (Gal1) = biological target: T2, human galectin-1 (Gal1) (human, UniProt P09382 2-135); assay: immunoblot of L428 cell lysate
T2 construct: Used as recombinant protein (rGal1); also called hGal1; rGal1
T2 sequence (P09382 2-135 limits assumed): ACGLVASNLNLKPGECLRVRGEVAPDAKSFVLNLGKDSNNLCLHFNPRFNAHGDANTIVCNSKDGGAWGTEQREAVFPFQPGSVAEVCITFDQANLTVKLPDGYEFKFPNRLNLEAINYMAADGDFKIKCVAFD

KS tumors = assay: KS xenograft in nude mice; assay type: in vivo
Experimental: HUVEC transfected or not with specific siRNA or pre-incubated with signaling pathway inhibitors were exposed to VEGF or Gal1 with or without lactose, sucrose, 8F4F8G7 mAb or control isotype (IgG1κ) or specific antibodies for VEGFR1 (AP-MAB0702; Abcam), VEGFR2 (AF357; R&D), VEGFR3 (AB89501; Abcam) or VEGF (MAB293; R&D). Cells were processed for proliferation, migration, invasion and tube formation assays. Tumor-associated blood vessels were identified by flow cytometry using Alexa Fluor 647-conjugated anti-CD34 antibody (RAM34; eBioscience).
Wild-type KS cells or shRNA clones (5×10^6 cells) were injected subcutaneously into 6- to 8-week old nude mice. Wild-type B16 cells or shRNA clones (2×10^5 cells) were injected into 6- to 8-week old B6 or B6/Rag^−/− mice and tumor development was monitored as described in Rubinstein et al. (2004) Cancer Cell 5, 241-251. Treatments with 8F4F8G7 mAb or control isotype (2.5, 7.5 or 15 mg/kg; i.p. injections every three days) were initiated when tumors reached 100 mm^3. […] At 2 weeks after tumor challenge, lymph node cells (5×10^5 cells/well) were restimulated for 72 h with 1×10^4 irradiated (4,000 rads) B16 cells and were analyzed for proliferation and cytokine production. […] CFSE^+ cells or PerCP-labeled beads were analyzed after 24 h or 15 min respectively by flow cytometry in tumor parenchyma and spleen.

B1: anti-Gal1 monoclonal antibody 8F4F8G7 (antibody, V domains shown)
VH: EVQLQQSVAEFVRPGASVRLSCTASGFNIKNTYIHWVRQRPEQGLEWIGKIDPANGNTKYVPEFQGKATMTADTSSNTVYLHLSSLTSEDTAIYYCVDGYYGWYFAVWGTGTTVTVSS
VL: QAVVTQESALTTSPGETVTLTCRSSTGAVTTSNYANWVQEKPDHLFTGLIGATNNRAPGVPARFSGSLIGDKAVLTITGAQTEDEAIYFCALWYRNHFIFGSGTKVTVL
notes: Murine hybridoma mAb (deposit PTA-10535), lambda light chain; also called 14-19 8F4-F8-G7; clone 8F4.8F.67
- rGal1-induced apoptosis of αCD3/αCD28-activated T cells [1]: almost completely inhibited
- microvessel density of tumors (B16 tumors [2]; 30 days post-inoculation): only a slight decrease
- frequency of CD34+ cells (B16 tumors [2]; day 20): No significant changes
- decreased tumor burden (B16 tumors [2]; immunocompetent mice, established B16 tumors, day 20): ~86%
- anti-tumor effect (B16 tumors [2]; immunodeficient B6/Rag−/− mice): only a partial anti-tumor effect
- coverage by pericytes (B16 tumors [2]; vs isotype control): greater coverage
- dilated and tortuous vessels (B16 tumors [2]; vs isotype control): fewer
- pericyte phenotype (B16 tumors [2]; vs isotype control): more mature phenotype
- tumor hypoxia (pimonidazole adducts) (B16 tumors [2]; vs isotype control): markedly alleviated
- tumor vasculature: vessel diameter and distribution (B16 tumors [2]; vs isotype control, lectin-perfused vessels): resembled normal vascular networks
- expression of desmin (B16 tumors [2]; vs isotype-treated tumors): no significant variations
- pericyte expression of platelet-derived growth factor receptor (PDGFR)β (B16 tumors [2]; vs isotype-treated tumors): lower expression
- pericyte expression of regulator of G-protein signaling 5 (Rgs5) (B16 tumors [2]; vs isotype-treated tumors): lower expression
- pericyte expression of α-smooth muscle actin (αSMA) (B16 tumors [2]; vs isotype-treated tumors): higher expression
- reactivity with endogenous Gal1 (endogenous Gal1): specifically detected
- T cells reaching tumor parenchyma (increase) (B16 tumors [3]; CFSE-labeled T cells, vs control isotype): 3 fold
- number of CFSE+ T cells in spleens (B16 tumors [3]; recipient mice): no differences
- access of fluorescently-labeled beads to the tumor parenchyma (B16 tumors [3]; vs isotype-treated mice, 15 min): increased access
- binding result (human galectin-1 (Gal1)): binds
- tumor microvasculature (KS tumors; CD34+ ECs and tumor hemoglobin content, vs isotype control): significant reduction
- tumor growth (KS tumors; established KS tumors, 2.5, 7.5 or 15 mg/kg i.p. every three days): dose-dependent delay
